IntAct's records for PubMed 31515488

B1: Medium-chain acyl-CoA ligase ACSF2, mitochondrial (Homo sapiens), Q96CM8 (parent)
chain: MAVYVGMLRLGRLCAGSSGVLGARAALSRSWQEARLQGVRFLSSREVDRMVSTPIGGLSYVQGCTKKHLNSKTVGQCLETTAQRVPEREALVVLHEDVRLTFAQLKEEVDKAASGLLSIGLCKGDRLGMWGPNSYAWVLMQLATAQAGIILVSVNPAYQAMELEYVLKKVGCKALVFPKQFKTQQYYNVLKQICPEVENAQPGALKSQRLPDLTTVISVDAPLPGTLLLDEVVAAGSTRQHLDQLQYNQQFLSCHDPINIQFTSGTTGSPKGATLSHYNIVNNSNILGERLKLHEKTPEQLRMILPNPLYHCLGSVAGTMMCLMYGATLILASPIFNGKKALEAISRERGTFLYGTPTMFVDILNQPDFSSYDISTMCGGVIAGSPAPPELIRAIINKINMKDLVVAYGTTENSPVTFAHFPEDTVEQKAESVGRIMPHTEARIMNMEAGTLAKLNTPGELCIRGYCVMLGYWGEPQKTEEAVDQDKWYWTGDVATMNEQGFCKIVGRSKDMIIRGGENIYPAELEDFFHTHPKVQEVQVVGVKDDRMGEEICACIRLKDGEETTVEEIKAFCKGKISHFKIPKYIVFVTNYPLTISGKIQKFKLREQMERHLNL
partner: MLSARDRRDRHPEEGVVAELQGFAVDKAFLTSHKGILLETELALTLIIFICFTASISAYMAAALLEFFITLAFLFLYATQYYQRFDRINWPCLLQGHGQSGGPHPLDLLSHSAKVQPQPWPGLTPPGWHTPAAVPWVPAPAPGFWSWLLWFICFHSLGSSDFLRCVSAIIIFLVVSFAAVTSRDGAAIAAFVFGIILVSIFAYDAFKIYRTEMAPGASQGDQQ
B2: Coiled-coil domain-containing protein 68 (Homo sapiens), Q9H2F9 (parent)
chain: MTTVTVTTEIPPRDKMEDNSALYESTSAHIIEETEYVKKIRTTLQKIRTQMFKDEIRHDSTNHKLDAKHCGNLQQGSDSEMDPSCCSLDLLMKKIKGKDLQLLEMNKENEVLKIKLQASREAGAAALRNVAQRLFENYQTQSEEVRKKQEDSKQLLQVNKLEKEQKLKQHVENLNQVAEKLEEKHSQITELENLVQRMEKEKRTLLERKLSLENKLLQLKSSATYGKSCQDLQREISILQEQISHLQFVIHSQHQNLRSVIQEMEGLKNNLKEQDKRIENLREKVNILEAQNKELKTQVALSSETPRTKVSKAVSTSELKTEGVSPYLMLIRLRK
B3: IQ motif and ubiquitin-like domain-containing protein (Homo sapiens), Q8NA54 (parent)
chain: MSNQQEKYEAQNIVNSTEESDDAFDTVTIPVPSEEPQESDQTEEHESGIEQFSESHAIHVEEQSDQSFSSLEPDNEQLMEEVISPRQVSYTPQHHEKQYAMQRPNDDSLAFLDKIKSVKESLQESVEDSLATVKVVLIPVGQEIVIPFKVDTILKYLKDHFSHLLGIPHSVLQIRYSGKILKNNETLVQHGVKPQEIVQVEIFSTNPDLYPVRRIDGLTDVSQIITVTVQTGLDQYQQVPVEIVKSDFHKPFLGGFRHKVTGVEYHNAGTQTVPKRIPERLSIFCRDTQTVFQKKNLQQTTNTTSTQMTNIGVYVSNMTDKLVTPGKYFSAAEYHAQRLKAVIVIQTYYRQWHAKIFVENLRRQKSLRLEWETQQELRKIREKEEWIKLDYHRRHNPKTNEDFEFLYNALEFWRQEELTRINQSFTGAERKAALCELLEKETQIIASIGRHRYIAYMANQEAAIQAFLDKCSAPKIWRTPNGKTIEMDTQFTIRARELQNIYKCIMLKNISQDERLDVLLTLKHTVKEHECKLTQEILELIDREVDLMMRGVKHHNLEGLRKRIATLFFHYIKTPLFNPEVAKYLKVPQDPLKFYKKIYFCHSCQLYLPSTEFSVSSTSRRIYRCRNCINLQNEAQKRESFLKYKCLLQQLYYTEADYEDDSKIAFLMQLQDIQYLTENIWASQSVLSACDNLSDLVMVRWNKSLEWSPWNCILLTKDEAAAHLKLTSIEEGYERSFIHKIKHKHILAKNYFSQVPVLASFILDDGEIDEIRWKYHSDTTPKIIESQRPPH
partner: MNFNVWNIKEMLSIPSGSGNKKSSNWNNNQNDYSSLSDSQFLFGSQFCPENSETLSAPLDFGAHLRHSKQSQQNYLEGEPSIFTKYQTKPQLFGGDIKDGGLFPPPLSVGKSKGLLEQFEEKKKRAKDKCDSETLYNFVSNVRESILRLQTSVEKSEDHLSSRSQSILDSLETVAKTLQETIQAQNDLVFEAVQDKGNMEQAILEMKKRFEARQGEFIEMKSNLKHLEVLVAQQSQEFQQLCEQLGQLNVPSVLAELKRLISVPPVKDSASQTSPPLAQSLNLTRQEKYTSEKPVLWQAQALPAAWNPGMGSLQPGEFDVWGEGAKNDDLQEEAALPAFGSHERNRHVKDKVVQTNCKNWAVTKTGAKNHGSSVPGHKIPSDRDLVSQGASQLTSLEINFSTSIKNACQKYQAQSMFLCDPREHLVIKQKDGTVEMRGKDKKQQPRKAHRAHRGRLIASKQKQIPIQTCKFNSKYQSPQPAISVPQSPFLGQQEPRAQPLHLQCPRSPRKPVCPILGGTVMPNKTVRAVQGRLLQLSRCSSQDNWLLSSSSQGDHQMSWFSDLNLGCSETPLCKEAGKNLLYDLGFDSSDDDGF
B4: Protein FAM9B (Homo sapiens), Q8IZU0 (parent)
chain: MAAWGKKHAGKDPVRDECEERNRFTETREEDVTDEHGEREPFAETDEHTGANTKKPEDTAEDLTAKRKRMKMDKTCSKTKNKSKHALRKKQLKRQKRDYIHSLKLLNVLEEYITDEQKEEEEEEGEEEELIRIFQEQQKKWQQYRSVRRERLKEMKLLRDQFVKALEDFEDLCDRVFSDEDSELDN
partner: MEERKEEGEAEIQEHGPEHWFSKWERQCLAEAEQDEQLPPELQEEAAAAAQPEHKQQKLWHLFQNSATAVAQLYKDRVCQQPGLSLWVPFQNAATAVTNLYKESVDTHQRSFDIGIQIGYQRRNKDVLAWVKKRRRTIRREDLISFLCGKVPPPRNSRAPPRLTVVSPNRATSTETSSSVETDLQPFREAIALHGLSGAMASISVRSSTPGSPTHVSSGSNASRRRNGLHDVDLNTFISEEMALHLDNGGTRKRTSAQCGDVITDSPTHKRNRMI
B5: Cytohesin-4 (Homo sapiens), Q9UIA0 (parent)
chain: MDLCHPEPAELSSGETEELQRIKWHRKQLLEDIQKLKDEIADVFAQIDCFESAEESRMAQKEKELCIGRKKFNMDPAKGIQYFIEHKLLTPDVQDIARFLYKGEGLNKTAIGTYLGERDPINLQVLQAFVDCHEFANLNLVQALRQFLWSFRLPGEAQKIDRMMEAFATRYCLCNPGVFQSTDTCYVLSFSIIMLNTSLHNPNVRDRPPFERFVSMNRGINNGSDLPEDQLRNLFDSIKSEPFSIPEDDGNDLTHTFFNPDREGWLLKLGGRVKTWKRRWFILTDNCLYYFEFTTDKEPRGIIPLENLSVQKVDDPKKPFCLELYNPSCRGQKIKACKTDGDGRVVEGKHESYRISATSAEERDQWIESIRASITRVPFYDLVSTRKKKIASKQ
B6: Cyclin-dependent kinase 2-interacting protein (Homo sapiens), Q9BW66 (parent)
chain: MEAKTLGTVTPRKPVLSVSARKIKDNAADWHNLILKWETLNDAGFTTANNIANLKISLLNKDKIELDSSSPASKENEEKVCLEYNEELEKLCEELQATLDGLTKIQVKMEKLSSTTKGICELENYHYGEESKRPPLFHTWPTTHFYEVSHKLLEMYRKELLLKRTVAKELAHTGDPDLTLSYLSMWLHQPYVESDSRLHLESMLLETGHRAL
partner: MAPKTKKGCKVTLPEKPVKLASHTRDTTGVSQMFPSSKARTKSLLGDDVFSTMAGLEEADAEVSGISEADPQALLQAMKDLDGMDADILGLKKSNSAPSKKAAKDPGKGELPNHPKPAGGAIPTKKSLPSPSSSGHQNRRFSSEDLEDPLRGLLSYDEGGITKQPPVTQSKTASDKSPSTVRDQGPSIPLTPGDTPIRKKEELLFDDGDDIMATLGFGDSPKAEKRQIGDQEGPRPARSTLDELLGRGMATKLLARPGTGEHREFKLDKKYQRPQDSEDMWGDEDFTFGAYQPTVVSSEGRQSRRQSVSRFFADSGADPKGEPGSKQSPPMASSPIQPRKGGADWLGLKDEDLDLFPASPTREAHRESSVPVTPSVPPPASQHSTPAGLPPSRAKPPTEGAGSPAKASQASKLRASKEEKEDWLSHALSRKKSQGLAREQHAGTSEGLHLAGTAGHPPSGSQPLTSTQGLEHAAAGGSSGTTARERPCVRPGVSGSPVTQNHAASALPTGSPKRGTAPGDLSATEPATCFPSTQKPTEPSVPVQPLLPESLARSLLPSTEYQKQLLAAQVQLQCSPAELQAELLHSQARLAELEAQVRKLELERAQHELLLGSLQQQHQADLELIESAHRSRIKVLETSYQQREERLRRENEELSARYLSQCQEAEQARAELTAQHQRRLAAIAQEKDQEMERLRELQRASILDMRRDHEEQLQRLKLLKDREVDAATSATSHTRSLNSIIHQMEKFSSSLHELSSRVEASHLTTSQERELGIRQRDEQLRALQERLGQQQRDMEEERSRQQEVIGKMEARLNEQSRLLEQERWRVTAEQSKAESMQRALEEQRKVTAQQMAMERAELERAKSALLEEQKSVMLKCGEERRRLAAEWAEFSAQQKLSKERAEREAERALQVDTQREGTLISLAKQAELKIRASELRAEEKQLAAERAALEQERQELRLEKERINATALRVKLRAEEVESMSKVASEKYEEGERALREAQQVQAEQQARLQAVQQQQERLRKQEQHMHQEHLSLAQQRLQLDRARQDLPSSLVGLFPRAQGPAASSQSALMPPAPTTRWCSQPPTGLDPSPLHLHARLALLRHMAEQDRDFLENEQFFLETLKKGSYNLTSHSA

Variants of: B1
Conditions: with cklf5_human CMTM5, Q96DZ9

effect of a mutation on the interaction	Variant
disrupting interaction strength	A34V
disrupting interaction strength	G19W

Variants of: B2
Conditions: with tfp11_human TFIP11, Q9UBB9
Sequence of tfp11_human TFIP11, Q9UBB9 (Q9UBB9 whole entry): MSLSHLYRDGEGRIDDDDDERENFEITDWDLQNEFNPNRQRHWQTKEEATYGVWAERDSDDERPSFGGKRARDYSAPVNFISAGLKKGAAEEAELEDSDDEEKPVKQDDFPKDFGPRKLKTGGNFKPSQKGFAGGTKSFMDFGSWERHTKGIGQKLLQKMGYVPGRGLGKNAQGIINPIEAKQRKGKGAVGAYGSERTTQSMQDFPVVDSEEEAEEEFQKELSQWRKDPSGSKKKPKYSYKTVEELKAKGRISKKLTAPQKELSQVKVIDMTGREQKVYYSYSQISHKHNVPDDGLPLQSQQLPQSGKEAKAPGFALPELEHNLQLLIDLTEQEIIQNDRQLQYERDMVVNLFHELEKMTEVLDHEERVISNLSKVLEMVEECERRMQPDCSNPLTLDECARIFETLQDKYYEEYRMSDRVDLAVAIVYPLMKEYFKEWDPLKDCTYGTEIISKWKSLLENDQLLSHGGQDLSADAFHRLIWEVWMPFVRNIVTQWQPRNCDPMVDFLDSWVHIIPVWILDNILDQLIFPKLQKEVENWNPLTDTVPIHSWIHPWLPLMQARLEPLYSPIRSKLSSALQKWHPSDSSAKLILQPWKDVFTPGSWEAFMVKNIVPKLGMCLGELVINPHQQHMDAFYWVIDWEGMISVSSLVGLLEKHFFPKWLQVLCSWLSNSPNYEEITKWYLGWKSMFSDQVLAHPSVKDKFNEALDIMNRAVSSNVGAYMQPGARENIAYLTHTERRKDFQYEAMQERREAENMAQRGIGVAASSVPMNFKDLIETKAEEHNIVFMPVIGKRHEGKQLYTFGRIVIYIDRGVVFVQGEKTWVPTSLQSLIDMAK

effect of a mutation on the interaction	Variant
with no effect	D151G
with no effect	V249A
with no effect	L100V

Variants of: B3
Conditions: with iho1_human IHO1, Q8IYA8

effect of a mutation on the interaction	Variant
with no effect	V126M
disrupting interaction strength	I501F

Variants of: B4
Conditions: with hapr1_human HAPSTR1, Q14CZ0

effect of a mutation on the interaction	Variant
with no effect	R23H

Variants of: B5
Conditions: with fos_human FOS

effect of a mutation on the interaction	Variant
with no effect	M74V
with no effect	A9T

Variants of: B6
Conditions: with fbf1_human FBF1, Q8TES7

effect of a mutation on the interaction	Variant
with no effect	R164H
